# Molecular target: T1, mouse TEM7R extracellular domain, 6xHis-tagged, secreted (mouse, UniProt Q9DC11 31-455)
# T1 construct: extracellular domain; also called mTEM7R ECD; TEM7R ECD; not shown: 6xHis tag from the pSecTag2/Hygro A vector
# Assay: SPR (BIAcore), ECD immobilised on CM5 chip, 1:1 Langmuir fit
# Protocol: scFvs were expressed in E. coli and purified by sequential IMAC and size exclusion chromatography (Robinson, M K et al. (2005) Cancer Research 65:1471-8). Binding of the TEM7R scFv, to extracellular domain (ECDs) was characterized by SPR using TEM7R ECD as the target antigen (Yuan, Q A et al. (2006) Mol. Cancer Ther. 5:2096-105). ECD was diluted to 10 μg/mL in 10 mM sodium acetate pH 5.2 and approximately 200 RU of ECD were immobilized onto CM5 sensor chips via NHS-ester chemistry.
# Kinetic constants for A5 were determined by passing serially diluted samples (0 nM to 2 μM) over flow cells at flow rate of 40 μL/min. Response against an ErbB2 coated flow cell was used as a negative control and subtracted from the response generated against the TEM7R ECD to obtain the final sensorgrams. Data was evaluated using BIAEvaluation 3.2 software (BIAcore, Piscataway, N.J.) and fit using the 1:1 Langmuir binding model. Flow cells were regenerated by sequential 15-second pulses with 10 mM glycine, pH 2 and 50 mM Triethylamine, pH 10 followed by equilibration with PBS running buffer.
# T1 sequence (Q9DC11 31-455): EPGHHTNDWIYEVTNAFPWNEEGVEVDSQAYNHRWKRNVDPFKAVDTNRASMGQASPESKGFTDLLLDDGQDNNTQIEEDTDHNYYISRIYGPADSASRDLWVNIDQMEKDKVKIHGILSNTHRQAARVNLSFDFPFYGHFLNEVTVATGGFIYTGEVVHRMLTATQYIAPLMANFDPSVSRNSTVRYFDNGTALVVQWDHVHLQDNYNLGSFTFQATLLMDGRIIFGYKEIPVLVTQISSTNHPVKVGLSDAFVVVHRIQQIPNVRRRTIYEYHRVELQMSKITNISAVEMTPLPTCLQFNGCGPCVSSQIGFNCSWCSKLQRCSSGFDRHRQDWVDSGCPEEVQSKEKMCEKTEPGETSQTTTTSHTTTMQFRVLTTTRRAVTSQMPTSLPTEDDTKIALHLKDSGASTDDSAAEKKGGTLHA
binder,measurement,value
"anti-mTEM7R scFv#4 (scFv, Human scFv from a naive phage library, expressed in E. coli TG1 (pUC119mycHis / pSYN2) and purified by Ni-NTA, so it carries a His tag; also called clone 4; anti-TEM7R scFv) scFv: MAQVQLVESGGGLVQPGGSLRLSCAASGFTFSSYEMNWVRQAPGKGLEWVSYISSSGSTIYYADSVKGRFTISRDNSKNTLYLQMNSLRAEDTAVYYCASGDYMDVWGQGTTVTVSSSASGAELGGGGSGGGGSGGGGSTSDIQLTQSPSSLSASVGDRVTITCQASQDISNYLNWYQQKPGKAPKLLMYDASNLETGVPSRFSGSGSGTDFTFTISSLQPEDFATYYCQQSDNLPYTFGQGTKVDIKRS",Kd,10 nM
